From paper PMC3690482 (Molecular and cellular endocrinology, 2013) come the findings set out here.

The assay addresses MET (mouse (endogenous in NLT), UniProt P16056 25-1379). In words: co-IP.

B1: AXL (receptor, mouse (endogenous in NLT), UniProt Q00993 19-888, looked up)
chain: AHKDTQTEAGSPFVGNPGNITGARGLTGTLRCELQVQGEPPEVVWLRDGQILELADNTQTQVPLGEDWQDEWKVVSQLRISALQLSDAGEYQCMVHLEGRTFVSQPGFVGLEGLPYFLEEPEDKAVPANTPFNLSCQAQGPPEPVTLLWLQDAVPLAPVTGHSSQHSLQTPGLNKTSSFSCEAHNAKGVTTSRTATITVLPQRPHHLHVVSRQPTELEVAWTPGLSGIYPLTHCNLQAVLSDDGVGIWLGKSDPPEDPLTLQVSVPPHQLRLEKLLPHTPYHIRISCSSSQGPSPWTHWLPVETTEGVPLGPPENVSAMRNGSQVLVRWQEPRVPLQGTLLGYRLAYRGQDTPEVLMDIGLTREVTLELRGDRPVANLTVSVTAYTSAGDGPWSLPVPLEPWRPGQGQPLHHLVSEPPPRAFSWPWWYVLLGALVAAACVLILALFLVHRRKKETRYGEVFEPTVERGELVVRYRVRKSYSRRTTEATLNSLGISEELKEKLRDVMVDRHKVALGKTLGEGEFGAVMEGQLNQDDSILKVAVKTMKIAICTRSELEDFLSEAVCMKEFDHPNVMRLIGVCFQGSDREGFPEPVVILPFMKHGDLHSFLLYSRLGDQPVFLPTQMLVKFMADIASGMEYLSTKRFIHRDLAARNCMLNENMSVCVADFGLSKKIYNGDYYRQGRIAKMPVKWIAIESLADRVYTSKSDVWSFGVTMWEIATRGQTPYPGVENSEIYDYLRQGNRLKQPVDCLDGLYALMSRCWELNPRDRPSFAELREDLENTLKALPPAQEPDEILYVNMDEGGSHLEPRGAAGGADPPTQPDPKDSCSCLTAADVHSAGRYVLCPSTAPGPTLSADRGCPAPPGQEDGA
As to B1, the “AXL in the MET immunoprecipitate, fold of input lysate” value amounted to 0.6 fold.
